# From PMC5976931
# Target: B7-1 (mouse (endogenous in mouse podocytes)) (UniProt Q00609)
# UniProt Q00609, sequence (Q00609 38-306): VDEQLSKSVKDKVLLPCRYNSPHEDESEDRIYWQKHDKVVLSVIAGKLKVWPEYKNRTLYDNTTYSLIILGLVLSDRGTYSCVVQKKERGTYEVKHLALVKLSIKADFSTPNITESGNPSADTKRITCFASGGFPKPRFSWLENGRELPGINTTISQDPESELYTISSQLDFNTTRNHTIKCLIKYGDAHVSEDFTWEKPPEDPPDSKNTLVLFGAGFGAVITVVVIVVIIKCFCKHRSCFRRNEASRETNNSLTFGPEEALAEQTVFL
substance,measurement,value
CD28 (from UniProt P31041 20-218) (receptor),"late apoptosis rate of LPS-treated podocytes cocultured with γδT cells (Group D), Annexin-PI, 48 hours",10.2%
same,"late apoptosis rate of LPS-treated podocytes cocultured with γδT cells and treated with the CD28/B7-1 blocker CTLA4-Ig, 100 μg/ml (Group E), Annexin-PI, 48 hours",6.43%
same,phosphor-SRC immunofluorescence intensity in LPS-treated podocytes cocultured with γδT cells (Group D),142
same,"phosphor-SRC immunofluorescence intensity in LPS-treated podocytes cocultured with γδT cells and treated with the CD28/B7-1 blocker CTLA4-Ig, 100 μg/ml (Group E)",24
